Measured values: article PMC6237600

Biological target: c-met receptor tyrosine kinase (native, on MM cell surface) (Homo sapiens) (UniProt P08581)
Assay: flow cytometry cell binding
Details: MM.1S cells; library signal subtracted; 5 mM MgCl2; 1x PBS, 4.5 g/L glucose, 5 mM MgCl2, 0.1 mg/mL yeast tRNA, 1 mg/mL BSA, 4 C, 30 min; 3e5 cells in 200 uL; pH not stated

Chain of c-met receptor tyrosine kinase (native, on MM cell surface) (Homo sapiens) (P08581 25-1390): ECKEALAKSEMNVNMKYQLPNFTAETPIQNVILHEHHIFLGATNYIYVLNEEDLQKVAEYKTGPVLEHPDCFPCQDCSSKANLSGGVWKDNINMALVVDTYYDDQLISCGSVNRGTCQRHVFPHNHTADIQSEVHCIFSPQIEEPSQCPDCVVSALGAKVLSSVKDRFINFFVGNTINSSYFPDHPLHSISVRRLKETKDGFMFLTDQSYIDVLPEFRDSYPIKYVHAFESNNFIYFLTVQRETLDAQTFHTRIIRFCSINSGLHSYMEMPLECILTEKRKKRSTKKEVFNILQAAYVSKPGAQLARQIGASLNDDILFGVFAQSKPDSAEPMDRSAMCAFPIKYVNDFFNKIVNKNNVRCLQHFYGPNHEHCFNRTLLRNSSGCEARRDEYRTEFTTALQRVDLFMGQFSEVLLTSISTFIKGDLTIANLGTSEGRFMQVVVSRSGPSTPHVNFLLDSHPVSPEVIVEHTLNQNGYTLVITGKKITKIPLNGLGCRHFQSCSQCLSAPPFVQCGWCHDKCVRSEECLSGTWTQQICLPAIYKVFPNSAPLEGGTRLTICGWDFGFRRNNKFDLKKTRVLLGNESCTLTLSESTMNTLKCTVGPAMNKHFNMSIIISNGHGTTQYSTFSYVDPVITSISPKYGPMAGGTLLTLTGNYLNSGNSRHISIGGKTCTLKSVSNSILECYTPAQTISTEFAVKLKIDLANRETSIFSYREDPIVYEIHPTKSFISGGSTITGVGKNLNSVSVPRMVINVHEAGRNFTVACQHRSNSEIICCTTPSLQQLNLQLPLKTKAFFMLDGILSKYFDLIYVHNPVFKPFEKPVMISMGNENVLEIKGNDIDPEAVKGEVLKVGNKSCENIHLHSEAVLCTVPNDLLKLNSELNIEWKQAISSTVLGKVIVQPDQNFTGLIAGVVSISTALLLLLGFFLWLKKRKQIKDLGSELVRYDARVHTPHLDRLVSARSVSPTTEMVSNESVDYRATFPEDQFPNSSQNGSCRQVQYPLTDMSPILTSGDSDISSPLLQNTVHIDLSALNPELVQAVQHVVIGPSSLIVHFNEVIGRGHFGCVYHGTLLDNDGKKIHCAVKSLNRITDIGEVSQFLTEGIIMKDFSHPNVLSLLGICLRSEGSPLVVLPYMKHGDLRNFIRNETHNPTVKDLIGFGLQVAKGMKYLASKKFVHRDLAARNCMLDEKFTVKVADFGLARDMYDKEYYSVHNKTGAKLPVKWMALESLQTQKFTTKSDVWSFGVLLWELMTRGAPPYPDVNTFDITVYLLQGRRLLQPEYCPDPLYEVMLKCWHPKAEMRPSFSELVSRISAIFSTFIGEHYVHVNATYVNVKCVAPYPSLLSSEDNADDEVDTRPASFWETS

In the case of “ATCAGGCTGGATGGTAGCTCGGTCGGGGTGGGTGGGTTGGCAAGTCTGAT [SL1]”, the Kd is reported as 136 nM.
